Test results reported in patent US9540424B2, “Serum albumin binding molecules” (BRISTOL-MYERS SQUIBB COMPANY, priority 2010, dated 2017).
Several values for one entry are separate records, joined by “and”; a condition that tells them apart may be missing. Equal entries are not always repeated. Values belong to the molecule of their own block, whether it stands above or below them.

Columns and labels:
[1] = tested on: HEK cells stably expressing human β-klotho; test: HEK β-Klotho pERK 1/2 assay; assay type: cell-based; conditions: same dilutions as in parental HEK cells
Procedure: FGF21 induces ERK phosphorylation in the presence of β-klotho. Accordingly, the present HEK-β-klotho assay system was constructed to examine the functional activity of the FGF21-SABA fusions in vitro. Specifically, in vitro activity, potency (EC50) and efficacy (as a percentage of maximal activity observed from an FGF21 molecule that is not fused to a SABA), were determined for the SABA1-FGF21v1 (SEQ ID NO: 132) fusion protein, as measured in the HEK β-Klotho expressing stable cell pERK 1/2 assay using the non-fused His-tagged FGF21 (“FGFv1”; SEQ ID NO: 125) as a comparator.
A HEK cell line stably expressing human β-klotho was constructed. The human β-klotho construct encoded the full length protein under the control of a CMV promoter with a C-terminal FLAG tag. HEK 293 cells were transfected with the linearized cDNA using Lipofectamine 2000 (Invitrogen catalog #11668027) following the manufactures protocol using standard techniques. Positive clones were isolated after 14 days of selection in 600 ug/ml (Invitrogen catalog #10131) of geneticin in Dulbecco's Modified Eagle Medium with high glucose containing L-Glutamine, Hepes (Invitrogen catalog #12430054) and 10% FBS (HyClone catalog # SH30071). Positive stable clones were further characterized by Western Blot analysis and p-ERK activation by AlphaScreen (Perkin Elmer catalog # TGRES50K) analysis.
HEK cells stably expressing human β-klotho were plated at 20,000 cells/well in 96 well tissue culture plates in DMEM high glucose media (Gibco) containing 10% (v/v) FBS (Hyclone) and 600 μg/ml G418 (Gibco). The following day, the media was removed and replaced with DMEM high glucose media without serum and the cells were incubated overnight. The morning of the third day the serum free media was removed and the cells were incubated for a total of seven minutes with dilutions of the proteins made in PBS containing 3% (w/v) fatty acid free human serum albumin. Dilutions were tested in triplicate, one well on each of three plates. At the end of the seven minute incubation, the protein dilutions were removed and 100 μl of 1x AlphaScreen lysis buffer (Perkin-Elmer) was added per well and allowed to incubate with shaking for approximately 10-15 minutes. The plates containing the cellular lysates were frozen at −80° C. for at least 30 minutes or until ready to assay. Four μl from each well of thawed cell lysate was analyzed for pERK 1/2 using the Surefire AlphaScreen pERK 1/2 kit (Perkin Elmer) using 384 well white Proxiplates (Perkin Elmer) following the manufacturer's directions. Plates were incubated at room temperature for two hours in the dark and then read on an Envision 2103 Multiplate reader (Perkin Elmer). Data were analyzed using Graph Pad Prism software using a non-linear regression analysis.

[2] = tested on: parental HEK cells, which do not express β-klotho; test: pERK 1/2 specificity assay in parental HEK cells; assay type: cell-based, human
Excerpt: FGF1 was used as a positive control in those experiments.

HSA [3] = target: T1, HSA (Homo sapiens, UniProt P02768); test: SPR (Biacore T100) kinetics of FGF21-SABA1 fusions: HSA; assay type: binding; conditions: 37° C.
Procedure: (§1) The binding competency and thermodynamic characterization of FGF21-SABA fusion variants to human serum albumin were performed using Isothermal Titration calorimetry on a Microcal VP-ITC instrument (Microcal Inc. Amherst Mass., USA). […] The detailed experimental conditions are described below.
(§2) For the calorimetry assay, the FGF21-SABA variant SABA1-FGF21v1 (SEQ ID NO: 132) was used. […] For the SPR studies, SABA1-FGF21v1 and SABA1-FGF21v3 (SEQ ID NO: 134) were examined.
(§3) Serum albumins were dissolved in PBS buffer (10 mM sodium phosphate, 130 mM sodium chloride, pH 7.1) to a concentration of 10 mg/ml, and subsequently diluted to 8-10 μg/ml in 10 mM sodium acetate pH 5.0 for immobilization. Serum albumins were immobilized on a Series S CMS sensor chip using standard ethyl(dimethylaminopropyl) carbodiimide (EDC)/N-hydroxysuccinimide (NHS) chemistry in HBS-EP+ running buffer at 25° C., following general manufacturer guidelines. Flow cell 1 was activated with EDC/NHS and blocked with ethanolamine. […] Kinetic experiments were performed in PBS buffer containing 0.05% tween-20 (running buffer) at either 25° C. or 37° C. […] These samples were injected across flow cells 1-4 for 300 s, with a 420 s dissociation time, at flow rates of 30 μl/min or 60 μl/min to check for mass transfer limitation. All surfaces were regenerated with 2 pulses of 10 mM glycine pH 2.0 at 30 μl/min for 30 s. Raw sensograms were “double-referenced” by subtracting flow cell 1 data from flow cell 2, 3 or 4 data, and then subtracting a separate buffer cycle from each sensogram. The double-referenced sensogram data was fitted to a 1:1 Langmuir model using Biacore T100 Evaluation software version 2.0.2 to determine the association rate constant (ka), the dissociation rate constant (kd), and the equilibrium dissociation constant (KD).

CySA = target: T2, CySA (Macaca fascicularis, UniProt A2V9Z4); test: SPR (Biacore T100) kinetics of FGF21-SABA1 fusions: CySA; assay type: binding, cynomolgous monkey; conditions: 37° C.
T2 construct: purchased Equitech-Bio CMSA
Procedure: as §1, §2, §3

[4] = Pharmacokinetics of His-tagged FGF21 and SABA-FGF21 fusions in monkeys; assay type: in vivo, cynomolgus monkeys; conditions: monkeys
Procedure: Various in vivo studies were conducted in mice and monkeys to characterize the pharmacokinetics of His-tagged FGF21 and SABA1-FGF21v1. An ELISA-based ligand binding assay was used to measure the His-tagged FGF21 and SABA1-FGF21v1 in all mouse and monkey plasma samples.
Following subcutaneous administration, His-tagged FGF21 was well absorbed.
Following subcutaneous administration, SABA1-FGF21v1 was well absorbed.

MuSA [5] = target: T3, MuSA (Mus musculus, UniProt P07724); test: SPR (Biacore T100) kinetics of FGF21-SABA1 fusions: MuSA; assay type: binding, murine; design: purchased Sigma A3559; conditions: 37° C., up to 1 uM analyte
Procedure: as §1, §2, §3

[6] = Analytical size exclusion chromatography (SEC) of SABAs; assay type: physicochemical; conditions: midscaled material
Procedure: Size exclusion chromatography (SEC) was performed on the SABAs resulting from the HTPP. SEC of HTPP derived material was performed using a Superdex 200 5/150 or Superdex 75 5/150 column (GE Healthcare) on an Agilent 1100 or 1200 HPLC system with UV detection at A214 nm and A280 nm and with fluorescence detection (excitation=280 nm, emission=350 nm). A buffer of 100 mM sodium sulfate, 100 mM sodium phosphate, 150 mM sodium chloride, pH 6.8 at appropriate flow rate of the SEC column employed. Gel filtration standards (Bio-Rad Laboratories, Hercules, Calif.) were used for molecular weight calibration.
Midscale expression and purification yielded highly pure and active Adnectins™ that were expressed in a soluble form and purified from the soluble fraction of the bacterial cytosol.
Standard size exclusion chromatography (SEC) was performed on the candidate SABAs resulting from the midscale process. SEC of midscaled material was performed using a Superdex 200 10/30 or on a Superdex 75 10/30 column (GE Healthcare) on an Agilent 1100 or 1200 HPLC system with UV detection at A214 nm and A280 nm and with fluorescence detection (excitation=280 nm, emission=350 nm). A buffer of 100 mM sodium sulfate, 100 mM sodium phosphate, 150 mM sodium chloride, pH 6.8 at appropriate flow rate of the SEC column employed. Gel filtration standards (Bio-Rad Laboratories, Hercules, Calif.) were used for molecular weight calibration.

[7] = Differential Scanning calorimetry (DSC) thermostability of midscaled SABAs; assay type: physicochemical; conditions: 1 mg/ml solution, 5° C. to 95° C. at 1 degree per minute
Procedure: Differential Scanning calorimetry (DSC) analyses of the midscaled SABAs were performed to determine their respective Tm's. A 1 mg/ml solution was scanned in a N-DSC II calorimeter (calorimetry Sciences Corp) by ramping the temperature from 5° C. to 95° C. at a rate of 1 degree per minute under 3 atm pressure. The data was analyzed vs. a control run of the appropriate buffer using a best fit using Orgin Software (OrginLab Corp).

RhSA = RhSA (Macaca mulatta, UniProt Q28522); test: Biacore kinetics of SABAs on immobilized serum albumin: RhSA; assay type: binding, rhesus
Procedure: (§4) In addition, binding to albumin was carried out under various pH conditions ranging from pH 5.5 to pH 7.4.

MuSA [8] = target: T3, MuSA; test: Biacore kinetics of SABAs on immobilized serum albumin: MuSA; assay type: binding
[9] = Half-life of HSA and of SABA1-4 with or without HSA in mice (ELISA, WinNonlin); assay type: in vivo, Ncr nude female mice; conditions: for half-life in mice plasma: injected without HSA; for increase in half life when co-injected with HSA: with HSA vs without HSA, mice
Procedure: The pharmacokinetic parameters of each Adnectin™ were determined using non-compartmental modeling with WinNonlin software.

[10] = Single dose pharmacokinetics of SABA1.1 and SABA5.1 in cynomolgus monkeys; assay type: in vivo; conditions: 1 mpk IV
Procedure: The pharmacokinetics were evaluated using a quantitative ELISA-based assay that was developed to detect the Adnectin™ in plasma samples.

HSA [11] = target: T1, HSA
Procedure: as §4

[12] = intravenous, His-tagged FGF21 0.5 mg/kg, SABA1-FGF21v1 0.08 mg/kg
[13] = co-injected with HSA (3-4 molar excess), tail vein

T2 sequence (A2V9Z4 25-608): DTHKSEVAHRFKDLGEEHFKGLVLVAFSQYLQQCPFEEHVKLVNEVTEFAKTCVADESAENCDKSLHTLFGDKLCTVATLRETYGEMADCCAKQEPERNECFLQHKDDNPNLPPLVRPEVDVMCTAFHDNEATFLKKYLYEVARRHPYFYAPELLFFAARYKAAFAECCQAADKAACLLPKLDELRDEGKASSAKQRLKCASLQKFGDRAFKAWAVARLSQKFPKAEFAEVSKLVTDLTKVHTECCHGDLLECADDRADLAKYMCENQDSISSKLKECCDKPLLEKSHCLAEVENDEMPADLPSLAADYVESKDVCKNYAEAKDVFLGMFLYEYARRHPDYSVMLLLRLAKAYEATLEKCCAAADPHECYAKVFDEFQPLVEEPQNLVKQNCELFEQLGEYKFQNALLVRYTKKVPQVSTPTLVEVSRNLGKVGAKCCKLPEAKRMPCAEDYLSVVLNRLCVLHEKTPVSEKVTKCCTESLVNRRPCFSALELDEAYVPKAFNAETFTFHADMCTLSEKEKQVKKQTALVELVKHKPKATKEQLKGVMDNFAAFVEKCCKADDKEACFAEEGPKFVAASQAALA
Chain of RhSA (Q28522 17-600): as the sequence (A2V9Z4 25-608) above
T3 sequence (P07724 25-608): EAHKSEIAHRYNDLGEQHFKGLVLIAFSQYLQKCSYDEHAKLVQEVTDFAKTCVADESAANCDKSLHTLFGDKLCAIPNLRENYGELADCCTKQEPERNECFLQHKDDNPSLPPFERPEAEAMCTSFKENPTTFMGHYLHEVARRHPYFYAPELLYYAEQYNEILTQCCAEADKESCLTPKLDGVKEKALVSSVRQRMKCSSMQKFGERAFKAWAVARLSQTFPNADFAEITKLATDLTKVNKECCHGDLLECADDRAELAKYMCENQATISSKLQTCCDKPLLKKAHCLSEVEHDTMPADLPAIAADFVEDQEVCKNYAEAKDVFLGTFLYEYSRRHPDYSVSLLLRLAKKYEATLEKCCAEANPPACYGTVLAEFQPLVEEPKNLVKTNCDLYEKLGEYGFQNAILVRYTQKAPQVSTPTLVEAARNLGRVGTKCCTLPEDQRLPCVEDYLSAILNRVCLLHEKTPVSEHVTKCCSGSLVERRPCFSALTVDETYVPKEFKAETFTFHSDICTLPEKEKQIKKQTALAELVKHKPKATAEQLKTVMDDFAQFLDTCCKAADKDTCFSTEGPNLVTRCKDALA

Molecule: FGF1: positive control in the pERK specificity assays [reference compound]
activity in HEK β-klotho stable cells (specificity experiment) [1]: showed activity
stimulation of pERK 1/2 levels in parental HEK cells [2]: did

B1: SABA1-FGF21v3: SABA1-FGF21 fusion, SEQ ID NO: 134; 299 aa; DNA SEQ ID NO: 177 (protein)
chain: MGVSDVPRDLEVVAATPTSLLISWHSYYEQNSYYRITYGETGGNSPVQEFTVPYSQTTATISGLKPGVDYTITVYAVYGSKYYYPISINYRTEIDKPSQHHHHHHGSGSGSGSGSGSGSPIPDSSPLLQFGGQVRQRYLYTDDAQQTEAHLEIREDGTVGGAADQSPESLLQLKALKPGVIQILGVKTSRFLCQRPDGALYGSLHFDPEACSFRELLLEDGYNVYQSEAHGLPLHLPGNKSPHRDPAPRGPARFLPLPGLPPALPEPPGILAPQPPDVGSSDPLSMVGPSQGRSPSYAS
ka (HSA [3]; flow rate 30 μl/min): 6160 M⁻¹ s⁻¹
kd (HSA [3]; flow rate 30 μl/min): 0.00103 s⁻¹
ka (HSA [3]; flow rate 60 μl/min): 5870 M⁻¹ s⁻¹
kd (HSA [3]; flow rate 60 μl/min): 0.00107 s⁻¹
ka (CySA; flow rate 30 μl/min): 5310 M⁻¹ s⁻¹
kd (CySA; flow rate 30 μl/min): 0.0117 s⁻¹
ka (CySA; flow rate 60 μl/min): 4380 M⁻¹ s⁻¹
kd (CySA; flow rate 60 μl/min): 0.0136 s⁻¹
increase of t1/2 compared to His-tagged FGF21 [4]: ~27 fold
CL (total body plasma clearance, CLTp) [4, 12]: 2.4 mL/h/kg
T½ (terminal half-life) [4, 12]: 52.7 h
Vdss (steady-state volume of distribution, Vss) [4, 12]: 0.11 L/kg
binding to MuSA (MuSA [5]; flow rate 30 μl/min): no binding observed up
binding to MuSA (MuSA [5]; flow rate 60 μl/min): no binding observed up

B3: SABA3.1: His-tagged SABA3 sequence (protein)
chain: MGVSDVPRDLEVVAATPTSLLISWSNDGPGLSYYRITYGETGGNSPVQEFTVPSSQTTATISGLKPGVDYTITVYAVSYYTKKAYSAGPISINYRTEIDKPSQHHHHHH
modifications: His6 tag
SEC Dimer (%) [6]: BLD
SEC Monomer (%) [6]: 99%
DSC (Tm) [7]: 65.2 °C
cross reaction with RhSA (RhSA): cross reacted
cross reaction with MuSA (MuSA [8]): did not cross react
PK (T½) Mice ([9]; co-injected with HSA): 0.533 h
PK (T½) Mice [9, 13]: 0.53 h
half-life in mice plasma [9]: 0.28 h
Comments: T½ in mice in words ([9]; mouse, in vivo): Poor T½ observed in mice
increase in half life when co-injected with HSA [9]: ~2 fold

More lines, main results first:

Comments: binding affinity for RhSA (RhSA): Poor binding affinity for RhSA.
cross reaction with RhSA (RhSA): cross reacted
cross reaction with MuSA (MuSA [8]): did not cross react
Comments: decrease in KD observed at pH <6.0 (HSA [11]; pH <6.0): >2-fold decrease in KD observed at
B2: SABA5.1: His-tagged SABA5 sequence (protein)
chain: MGVSDVPRDLEVVAATPTSLLISWEDDSYYSRYYRITYGETGGNSPVQEFTVPSDLYTATISGLKPGVDYTITVYAVTYDVTDLIMHEPISINYRTEIDKPSQHHHHHH
modifications: His6 tag
SEC Dimer (%) [6]: 12%
SEC Monomer (%) [6]: 88%
DSC (Tm) [7]: 70.1 °C
PK (T½) Mice [9, 13]: 4.6 h
AUCall ([10]; Mean, N 2): 246.882 µg·h/mL
Cl_obs ([10]; Mean, N 2): 4.089 mL/h/kg
Cmax ([10]; Mean, N 2): 17358 ng/mL
HL_Lambda_z ([10]; Mean, N 2): 12.186 h
Vz_obs ([10]; Mean, N 2): 0.072507 L/kg

cross reaction with RhSA (RhSA): cross reacted
cross reaction with MuSA (MuSA [8]): did not cross react
B4: SABA1.1: core SABA1 with N-terminal MGVSDVPRDLE, C-terminal EIDKPSQ and His6 tag; SEQ ID NO: 89 (protein)
chain: MGVSDVPRDLEVVAATPTSLLISWHSYYEQNSYYRITYGETGGNSPVQEFTVPYSQTTATISGLKPGVDYTITVYAVYGSKYYYPISINYRTEIDKPSQHHHHHH
SEC Dimer (%) [6]: 7.7%
SEC Monomer (%) [6]: 92.3%
DSC (Tm) [7]: 63.9 °C
PK (T½) Mice [9, 13]: 5.6 h
half-life in mice plasma [9]: 0.56 h
increase in half life when co-injected with HSA [9]: ~10 fold
AUCall ([10]; individual monkeys #1 and #2): 673.7 µg·h/mL and 625.1 µg·h/mL
Cl_obs ([10]; individual monkeys #1 and #2): 1.45 mL/h/kg and 1.60 mL/h/kg
Cmax ([10]; individual monkeys #1 and #2): 9030 ng/mL and 7240 ng/mL
Vz_obs ([10]; individual monkeys #1 and #2): 0.2008 L/kg and 0.3152 L/kg
t½ ([10]; individual monkeys #1 and #2): 95.8 h and 136.6 h
Resistant to pH 7.4→5.5? (HSA [11]; binding to HSA from pH 7.4 down to pH 5.5, symbols not defined): fits biochemical criteria for pH resistance and affinity/kinetics down to pH 5.5
